Measurements taken from patent US20210284724A1 (I MAB BIOPHARMA US, published 2021).

T1: human CXCL13 (human, UniProt O43927 23-109)
T1 construct: also called huCXCL13; rhCXCL13
T1 sequence (looked up): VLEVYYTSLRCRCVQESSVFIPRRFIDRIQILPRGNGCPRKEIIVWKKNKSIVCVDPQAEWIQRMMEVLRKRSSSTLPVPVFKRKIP


Legend:
human CXCL13 [1] = target: T1, human CXCL13; experiment: SPR Biacore T200
Procedure: To further optimization of 71F4-B, each Mutations in 71F4A3 useful for improving binding (Kon) were added into 71F4-B, the sequences were listed in Table 28. Antibodies according to these sequences were generated and affinity testing was performed by Biacore T200.

human CXCL13 [2] = target: T1, human CXCL13; experiment: SPR Biacore, off-rate ranking of Fabs
human CXCL13 [3] = target: T1, human CXCL13; experiment: SPR Biacore 8K, Fab over immobilised CXCL13
Procedure: HuCXCL13 binding affinity by Surface Plasmon Resonance. 411A11E9, 415A3D1, 64C10G1, 21H12D9, 329F2E1, 71F4A3 were selected to produce Fab and tested binding affinity. The binding of the antibodies to huCXCL13 was examined by Biacore 8K. 10 mM HEPES, 150 mM NaCl, 3 mM EDTA, 0.05% Tween-20, pH 7.4 served as running buffer and 10 mM glycine-HCl, pH2.0 served as regeneration buffer. CXCL13 protein was immobilized on Sensor Chip CM5 using amine coupling method (immobilization level ˜30RU). The serial concentrations of Fab (0-16 nM) were injected over immobilized CXCL13 at the flow rate of 30 μl/min. The dissociation phases were 600s.

human CXCL13 [4] = target: T1, human CXCL13; experiment: SPR Biacore 8K, Fab over immobilised CXCL13; remark: listed apart in the source
Procedure: Among all humanized Fab samples, 71F4A3-VH2VL1, 71F4A3-VH1VL1 (Hz71F4), 71F4A3-VH1VL2, 71F4A3-VH3VL1, 411A11E9-VH1VL4, 411A11E9-VH3VL4, 411A11E9-VH2VL4, 411A11E9-VH3VL2, 411A11E9-VH1VL2, 21H12D9-VH1VL1, 21H12D9-VH2VL2, 21H12D9-VH3VL3, 21H12D9-VH1VL2, 64C10G1-VH1VL3, 64C10G1-VH1VL4, 64C10G1-VH1VL1, 64C10G1-VH1VL2 were selected to test affinity by Biacore 8K. 10 mM HEPES, 150 mM NaCl, 3 mM EDTA, 0.05% Tween-20, pH 7.4 served as running buffer and 10 mM glycine-HCl, pH2.0 served as regeneration buffer. CXCL13 protein were immobilized on Sensor Chip CM5 using amine coupling method (immobilization level ˜250RU). The serial concentrations of Fab (0-20 nM) were injected over immobilized CXCL13 at the flow rate of 30 μl/min. The dissociation phases were 600s.

| Binder | Kd (human CXCL13 [1]) [nM] | koff (human CXCL13 [1]) [s⁻¹] | kon (human CXCL13 [1]) [M⁻¹ s⁻¹] | Kd (human CXCL13 [2]) [nM] | koff (human CXCL13 [2]) [s⁻¹] | kon (human CXCL13 [2]) [M⁻¹ s⁻¹] | Kd (human CXCL13 [3]) [nM] | koff (human CXCL13 [3]) [s⁻¹] | kon (human CXCL13 [3]) [M⁻¹ s⁻¹] | Kd (human CXCL13 [4]) [nM] | koff (human CXCL13 [4]) [s⁻¹] | kon (human CXCL13 [4]) [M⁻¹ s⁻¹] |
| --- | --- | --- | --- | --- | --- | --- | --- | --- | --- | --- | --- | --- |
| 71F4-B-T (antibody, V domains shown, also called 71F4A3-B-T) VH: EVQLVESGGGLVQPGGSLRLSCAASGIDFSRYWMSWVRQAPGKGLEWVAEINPESSTINYAPSLKDRFTISRDNAKNSLYLQMNSLRAEDTAVYYCARQDDYETYTMDYWGQGTTVTVSS VL: DIQMTQSPSSLSASVGDRVTITCKVSQDVNTGVAWYQQKPGKAPKLLIYSASYRYTGVPSRFSGSGSGTDFTFTISSLQPEDIATYYCQQYYSTPLTFGGGTKLEIK | 0.0456 | 1.17e-05 | 256000 | – | – | – | – | – | – | – | – | – |
| 415A3D1 chimeric Fab (Fab, V domains shown, Fab; label read as clone 415A3D1F4) VH: EVKLLESGGGLVQAGGSMRLSCGAFGFTVTDFYINWIRQPAGKAPEWLGFMRNKANGYTTEYNPSVKGRFTISRNNTQNMPYLQMNTLRTEDTAIYYCARSRYNADDYYVGVMDVWGQGASVTVSS VL: DIQMTQFPASLSASLGETVSIECLASEDIYNNLAWYQQKPGKSPQLLIYYTNSLQDGVPSRFSGTGSGTQYSLKINSLESEDAATYFCLQDSEYPWTFGGGTKLKLK | – | – | – | – | – | – | 1.2 | 0.00306 | 2.56e+06 | – | – | – |
| 329F2E1 chimeric Fab (Fab, V domains shown, Fab) VH: EVKLLQSGGGLVQPGGSLKLSCAASGIDFSRYWMSWVRRAPGKGLEWIGEINPDSSTINYAPSLKDKFIISRDNAKNTLYLQMSKVRSEDTALYYCARQDDYDYYAMDYWGQGTSVTVSS VL: DIVMTQSHKFMSTSVGDRVSITCKASQDVSTGVAWYQQKPGQSPKLLIYSASYRYTGVPDRFTGSGSRTDFTFTISSVQTEDPAVYYCHQYYTIPLTFGAGTELELK | – | – | – | – | – | – | 0.602 | 0.000581 | 966000 | – | – | – |

Next, values leading:

| Kd (human CXCL13 [1]) [nM] | koff (human CXCL13 [1]) [s⁻¹] | kon (human CXCL13 [1]) [M⁻¹ s⁻¹] | Kd (human CXCL13 [2]) [nM] | koff (human CXCL13 [2]) [s⁻¹] | kon (human CXCL13 [2]) [M⁻¹ s⁻¹] | Kd (human CXCL13 [3]) [nM] | koff (human CXCL13 [3]) [s⁻¹] | kon (human CXCL13 [3]) [M⁻¹ s⁻¹] | Kd (human CXCL13 [4]) [nM] | koff (human CXCL13 [4]) [s⁻¹] | kon (human CXCL13 [4]) [M⁻¹ s⁻¹] | Binder |
| --- | --- | --- | --- | --- | --- | --- | --- | --- | --- | --- | --- | --- |
| – | – | – | 0.708 | 0.00287 | 4.05e+06 | 0.158 | 0.000326 | 2.06e+06 | 0.74 | 0.00156 | 2.11e+06 | 411A11E9 chimeric Fab (Fab, V domains shown, Fab) VH: EVQLVESGGGLVQPGGSLKLSCVVSGFTFSDYYMAWVRQTPTKGLEWVASINYDGGDTYYRDSVKGRFTVSRNNAKSSLFLQMDSLRSEDTATYYCKTEEDYDGSYVMDAWGQGASVIVSS VL: DIQMTQSPSFLSASVGDRVTISCKASQNINKELTWYQQKLGKAPKRLIYNTNILQTGIPSRFSGSGSNTDYTLTISSLQPEDFATYFCLQQSSLYTFGAGTKLELK |
| – | – | – | 1.18 | 0.00139 | 1.17e+06 | 0.341 | 0.000731 | 2.14e+06 | 1.42 | 0.00258 | 1.82e+06 | 21H12D9 chimeric Fab (Fab, V domains shown, Fab; also called 21VH12D9-Chimeric) VH: EVQLQQSGPVLVRPGASVKMSCKASGYTFTDYYMNWVKQSHGKSLEWIGVINPNNGGTTYKEKFKGKATLTVDKSSGTAYMELNSLTSEDSAVYYCARDDYDAGYWGQGTTLTVSS VL: DIVMTQFQKFMSTTVGDRVSITCKASQNVDTAVAWYQHKPGQSPKLLIYSASHRYTGVPDRFTGSGSGTDFTLTISNVQSEDLADYFCQQYTDFPLTFGAGTKLELK |
